What was measured:
Test in all cases: steady-state chlorination kinetics
Type in all cases: biochemical, Streptomyces toxytricini
Conditions in all cases: wild type; kinetic assay conditions not given
[1] = substrate: N[C@@H](Cc1c[nH]c2ccccc12)C(=O)O
Description: (§1) steady-state chlorination kinetics on SttH

[2] = substrate: NC(=O)c1ccccc1N
Description: as §1

[3] = substrate: Nc1ccccc1C(=O)C[C@H](N)C(=O)O
Description: as §1

B1: SttH (Streptomyces toxytricini) (protein)
chain: MNTRNPDKVVIVGGGTAGWMTASYLKKAFGERVSVTLVESGTIGTVGVGEATFSDIRHFFEFLDLREEEWMPACNATYKLAVRFQDWQRPGHHFYHPFEQMRSVDGFPLTDWWLQNGPTDRFDRDCFVMASLCDAGRSPRYLNGSLLQQEFDERAEEPAGLTMSEHQGKTQFPYAYHFEAALLAEFLSGYSKDRGVKHVVDEVLEVKLDDRGWISHVVTKEHGDIGGDLFVDCTGFRGVLLNQALGVPFVSYQDTLPNDSAVALQVPLDMEARGIPPYTRATAKEAGWIWTIPLIGRIGTGYVYAKDYCSPEEAERTLREFVGPEAADVEANHIRMRIGRSEQSWKNNCVAIGLSSGFVEPLESTGIFFIHHAIEQLVKHFPAGDWHPQLRAGYNSAVANVMDGVREFLVLHYLGAARNDTRYWKDTKTRAVPDALAERIERWKVQLPDSENVFPYYHGLPPYSYMAILLGTGAIGLRPSPALALADPAAAEKEFTAIRDRARFLVDTLPSQYEYFAAMGQRV
notes: wild type, purified recombinant from E. coli; dimer in crystal
Km [1]: 0.8 ± 0.1 µM
kcat [1]: 0.0108 ± 0.000333 s⁻¹
kcat/Km [1]: 13700 ± 1580 M⁻¹ s⁻¹
Km [2]: 1075 ± 154 µM
kcat [2]: 0.0202 ± 0.000667 s⁻¹
kcat/Km [2]: 18.3 ± 2.83 M⁻¹ s⁻¹
Km [3]: 241 ± 32 µM
kcat [3]: 0.0085 ± 0.000333 s⁻¹
kcat/Km [3]: 35 ± 5 M⁻¹ s⁻¹
